B1: MD47 (antibody, V domains shown)
V domain 1: QMQLVQSGGGLVQPGGSLRLSCAASGFTFSSYAMSWVRQAPGKGLEWVSAISSGGSTYYADSVKGRFTISRDNSKNTLYLQMNSLRAEDTAVYYCAKDLVTAPSYEAFDIWGQGTMITVSS
V domain 2: NFMLTQPPSVSVAPGKTARITCGGNNIGSKSVHWYQQKPGQAPVLVIYYDSDRPSGIPERFSGSNSGNTATLTISRVEAGDEADYYCQVWDSSSHHHVVFGGGTKGTVL
notes: scFv-Fc format; also called MD47 scFv-Fc
B2: MD67 (antibody, V domains shown)
VH: EVQLVESGGGLVQPGGSLRLSCAASGFTVSSNYMTWVRQAPGKGLEWVSVIYSGGSTFYADSVKGRFTISRHNSKNTLYLQMNSLRAEDTAVYYCARDLSVRGGMDVWGQGTTVTVSS
VL: not shown
notes: scFv-Fc format; also called MD67 scFv-Fc
B3: MD62 (antibody, V domains shown)
VH: EVQLVQSGGGLIQPGGSLRLSCAASGVTVSSNYMTWVRQAPGKGLEWVSLIYSGGSTYYADSVKGRFTISRDNSKNTLYLQMNSLRAEDTAVYYCARDLQYYGMDVWGQGTMVTVSS
VL: AIRMTQSPSSVSASVGDRVTITCRASQDIGSWLGWYQQKPGKAPKLLIYAASSLAGGVPSRFSGSGSGTDFTLTISSLQPEDFATYYCQQANSFPLTFGGGTKLEIK
notes: scFv-Fc format; also called MD62 scFv-Fc
B4: MD17 (antibody, V domains shown)
VH: EVQLLESGGGLVQPGGSLRLSCSASGFTFSTYVMNWVRQAPGKGLEHVSGISSDGGITYYADSVKGRFTISRDNSKNTLYLQMSSLRVEDTAVYYCVKDQDSSSWYDAFDIWGQGTMVTVSS
VL: DIVMTQSPSSLSASVGDRVTITCRASQSISNYLNWYQQKLGKAPKLLTYAASRLQSGVPSRFSASGSGTEFTLTISSLQPEDFATYYCQQSYTTPLTFGGGTKLEIK
notes: scFv-Fc format; also called MD17 scFv-Fc
B5: MD29 (antibody, V domains shown)
VH: QMQLVQSGGGLVQPGGSLRLSCSASGFTFSTYVMNWVRQAPGKGPEHVSGISSDGGITYYADSVKGRFTISRDNSKNTLYLQMSSLRVEDTAVYYCVKDQDSSSWYDAFDIWGQGTMVTVSS
VL: NIRLTQSPSSLSASVGDRVTITCRATQSISSYLNWYQQKPGKAPNLLIYAASSLQSGVPSRFSGSGSGTDFTLTISSLQPEDFATYYCHQTYTSPYTFGQGTKLEIK
notes: scFv-Fc format; also called MD29 scFv-Fc

Columns and labels:
Settings in all cases: both partners purified
[1] = target: T1, SARS-CoV-2 spike receptor-binding domain (RBD), monomeric (SARS-CoV-2, UniProt P0DTC2); assay: ELISA; direct ELISA; plates coated with 2 μg/ml recombinant spike, S1, RBD or NTD; scFv-Fc detected with AP-conjugated anti-human IgG; specificity panel (Fig. 1c)
T1 construct: Called monomeric RBD in the BLI methods; Amino acids 1-15 are probably removed on secretion (surmise); also called monomeric RBD

[2] = target: T1, SARS-CoV-2 spike receptor-binding …; assay: BLI; Octet; biotinylated scFv-Fc on streptavidin sensors; increasing concentrations of monomeric RBD, 300 s association, 600 s dissociation; 30 °C; 1:1 binding model
[3] = target: T2, SARS-CoV-2 spike glycoprotein, soluble (amino acids 1-1207) (SARS-CoV-2, Wuhan-Hu-1 (QHD43416), UniProt P0DTC2, proline substitution at position 986 | proline substitution at position 987 | …); assay: ELISA; direct ELISA; plates coated with 2 μg/ml recombinant spike, S1, RBD or NTD; scFv-Fc detected with AP-conjugated anti-human IgG; specificity panel (Fig. 1c)
T2 construct: also called spike protein

| Binder | binding result [1] | Kd [2] [nM] | binding result [3] |
| --- | --- | --- | --- |
| B1 | binds |  |  |
| B2 |  | 0.4 to 5.8 |  |
| B3 |  |  | binds |
| B4 |  |  | binds |
| B5 |  | 0.4 to 5.8 | binds |
